Data reported in patent US20140087995A1 (published 2014).
Numbered stars: 1 amine (or outer) side, 2 acyl side, 3 side chain; on linkers, the order of the positions; unused ones are H or OH. Bridge positions count the residues as written; N and C are the ends. Side chains are listed from the residue outwards. Ends that are not written are not given here. * marks the point of attachment. C20 diacid = O=C(O)CCCCCCCCCCCCCCCCCCC(=O)*; γGlu = O=C(O)[C@H](CCC(=O)[*:2])N[*:1]; AEEA = NCCOCCOCC(=O)O

T1: human amylin receptor (amylin 3(a) receptor: human calcitonin receptor co-expressed with RAMP-3) (human, UniProt P30988 25-474; O60896 24-148, limits assumed)
T1 sequence (looked up) 1: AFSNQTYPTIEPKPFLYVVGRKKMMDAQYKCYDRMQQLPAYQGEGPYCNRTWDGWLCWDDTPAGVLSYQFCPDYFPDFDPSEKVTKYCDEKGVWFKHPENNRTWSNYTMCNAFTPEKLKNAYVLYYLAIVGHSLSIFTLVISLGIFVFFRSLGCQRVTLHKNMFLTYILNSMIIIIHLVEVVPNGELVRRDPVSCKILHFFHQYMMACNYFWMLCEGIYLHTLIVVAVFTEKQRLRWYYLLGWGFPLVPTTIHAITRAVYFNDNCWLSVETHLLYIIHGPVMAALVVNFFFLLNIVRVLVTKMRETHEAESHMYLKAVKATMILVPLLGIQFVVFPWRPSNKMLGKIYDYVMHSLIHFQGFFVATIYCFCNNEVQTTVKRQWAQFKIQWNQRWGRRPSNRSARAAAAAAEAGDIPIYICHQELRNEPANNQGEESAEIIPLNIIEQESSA
T1 sequence (looked up) 2: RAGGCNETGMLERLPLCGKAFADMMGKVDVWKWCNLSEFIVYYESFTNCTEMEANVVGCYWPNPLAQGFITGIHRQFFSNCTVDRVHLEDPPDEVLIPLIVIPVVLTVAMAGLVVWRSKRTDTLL

T2: human calcitonin receptor (human, UniProt P30988 25-474)
T2 sequence (looked up): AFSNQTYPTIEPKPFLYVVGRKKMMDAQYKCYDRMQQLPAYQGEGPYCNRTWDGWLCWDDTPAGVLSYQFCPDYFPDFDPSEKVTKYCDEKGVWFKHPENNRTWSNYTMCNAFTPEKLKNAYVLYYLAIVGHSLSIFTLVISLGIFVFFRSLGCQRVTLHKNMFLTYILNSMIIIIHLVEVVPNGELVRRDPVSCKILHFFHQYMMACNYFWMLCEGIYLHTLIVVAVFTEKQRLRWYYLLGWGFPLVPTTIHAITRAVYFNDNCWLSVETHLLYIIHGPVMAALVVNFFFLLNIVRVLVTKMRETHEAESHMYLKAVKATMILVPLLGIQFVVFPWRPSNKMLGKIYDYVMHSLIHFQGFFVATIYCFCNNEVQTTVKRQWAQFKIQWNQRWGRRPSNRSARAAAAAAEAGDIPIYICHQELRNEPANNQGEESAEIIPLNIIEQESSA


Key:
[1] = target: T1, human amylin receptor (amylin 3(a) …); experiment: cell-based or functional assay
[2] = target: T2, human calcitonin receptor; experiment: cell-based or functional assay

Row | Binder | hAmylin-R funct. EC50 [1] [pM] | hCTR funct. EC50 [2] [pM]
1 | K([AEEA-γGlu-C20 diacid])CNTATCATQRLAHFLRHSSPNFGAIPSSTPVGSNTY-NH2 (disulfide 2-7; N-terminus assumed; SMILES CC[C@H](C)[C@H](NC(=O)[C@H](C)NC(=O)CNC(=O)[C@H](Cc1ccccc1)NC(=O)[C@H](CC(N)=O)NC(=O)[C@@H]1CCCN1C(=O)[C@H](CO)NC(=O)[C@H](CO)NC(=O)[C@H](Cc1c[nH]cn1)NC(=O)[C@H](CCCNC(=N)N)NC(=O)[C@H](CC(C)C)NC(=O)[C@H](Cc1ccccc1)NC(=O)[C@H](Cc1c[nH]cn1)NC(=O)[C@H](C)NC(=O)[C@H](CC(C)C)NC(=O)[C@H](CCCNC(=N)N)NC(=O)[C@H](CCC(N)=O)NC(=O)[C@@H](NC(=O)[C@H](C)NC(=O)[C@@H]1CSSC[C@H](NC(=O)[C@@H](N)CCCCNC(=O)COCCOCCNC(=O)CC[C@H](NC(=O)CCCCCCCCCCCCCCCCCCC(=O)O)C(=O)O)C(=O)N[C@@H](CC(N)=O)C(=O)N[C@@H]([C@@H](C)O)C(=O)N[C@@H](C)C(=O)N[C@@H]([C@@H](C)O)C(=O)N1)[C@@H](C)O)C(=O)N1CCC[C@H]1C(=O)N[C@@H](CO)C(=O)N[C@@H](CO)C(=O)N[C@H](C(=O)N1CCC[C@H]1C(=O)N[C@H](C(=O)NCC(=O)N[C@@H](CO)C(=O)N[C@@H](CC(N)=O)C(=O)N[C@H](C(=O)N[C@@H](Cc1ccc(O)cc1)C(N)=O)[C@@H](C)O)C(C)C)[C@@H](C)O, also called compound 61) | 51 | 554
2 | K([AEEA-γGlu-C20 diacid])CNTATCATQRLAHFLRHSSPNFGAIPSSTNVGPNTY-NH2 (disulfide 2-7; N-terminus assumed; SMILES CC[C@H](C)[C@H](NC(=O)[C@H](C)NC(=O)CNC(=O)[C@H](Cc1ccccc1)NC(=O)[C@H](CC(N)=O)NC(=O)[C@@H]1CCCN1C(=O)[C@H](CO)NC(=O)[C@H](CO)NC(=O)[C@H](Cc1c[nH]cn1)NC(=O)[C@H](CCCNC(=N)N)NC(=O)[C@H](CC(C)C)NC(=O)[C@H](Cc1ccccc1)NC(=O)[C@H](Cc1c[nH]cn1)NC(=O)[C@H](C)NC(=O)[C@H](CC(C)C)NC(=O)[C@H](CCCNC(=N)N)NC(=O)[C@H](CCC(N)=O)NC(=O)[C@@H](NC(=O)[C@H](C)NC(=O)[C@@H]1CSSC[C@H](NC(=O)[C@@H](N)CCCCNC(=O)COCCOCCNC(=O)CC[C@H](NC(=O)CCCCCCCCCCCCCCCCCCC(=O)O)C(=O)O)C(=O)N[C@@H](CC(N)=O)C(=O)N[C@@H]([C@@H](C)O)C(=O)N[C@@H](C)C(=O)N[C@@H]([C@@H](C)O)C(=O)N1)[C@@H](C)O)C(=O)N1CCC[C@H]1C(=O)N[C@@H](CO)C(=O)N[C@@H](CO)C(=O)N[C@H](C(=O)N[C@@H](CC(N)=O)C(=O)N[C@H](C(=O)NCC(=O)N1CCC[C@H]1C(=O)N[C@@H](CC(N)=O)C(=O)N[C@H](C(=O)N[C@@H](Cc1ccc(O)cc1)C(N)=O)[C@@H](C)O)C(C)C)[C@@H](C)O, also called compound 68) | 54 | 932

The next lines start with the values.

Row | hAmylin-R funct. EC50 [1] [pM] | hCTR funct. EC50 [2] [pM] | Binder
3 | 666 | 37500 | K([AEEA-γGlu-C20 diacid])CNTATCATQRLAKFLRHSSPNFGAIPSSTPVGSNTY-NH2 (disulfide 2-7; N-terminus assumed; SMILES CC[C@H](C)[C@H](NC(=O)[C@H](C)NC(=O)CNC(=O)[C@H](Cc1ccccc1)NC(=O)[C@H](CC(N)=O)NC(=O)[C@@H]1CCCN1C(=O)[C@H](CO)NC(=O)[C@H](CO)NC(=O)[C@H](Cc1c[nH]cn1)NC(=O)[C@H](CCCNC(=N)N)NC(=O)[C@H](CC(C)C)NC(=O)[C@H](Cc1ccccc1)NC(=O)[C@H](CCCCN)NC(=O)[C@H](C)NC(=O)[C@H](CC(C)C)NC(=O)[C@H](CCCNC(=N)N)NC(=O)[C@H](CCC(N)=O)NC(=O)[C@@H](NC(=O)[C@H](C)NC(=O)[C@@H]1CSSC[C@H](NC(=O)[C@@H](N)CCCCNC(=O)COCCOCCNC(=O)CC[C@H](NC(=O)CCCCCCCCCCCCCCCCCCC(=O)O)C(=O)O)C(=O)N[C@@H](CC(N)=O)C(=O)N[C@@H]([C@@H](C)O)C(=O)N[C@@H](C)C(=O)N[C@@H]([C@@H](C)O)C(=O)N1)[C@@H](C)O)C(=O)N1CCC[C@H]1C(=O)N[C@@H](CO)C(=O)N[C@@H](CO)C(=O)N[C@H](C(=O)N1CCC[C@H]1C(=O)N[C@H](C(=O)NCC(=O)N[C@@H](CO)C(=O)N[C@@H](CC(N)=O)C(=O)N[C@H](C(=O)N[C@@H](Cc1ccc(O)cc1)C(N)=O)[C@@H](C)O)C(C)C)[C@@H](C)O, also called compound 74)
4 | 85 | 961 | K([AEEA-γGlu-C20 diacid])CNTATCATQRLASFLRHSSPNFGAIPSSTPVGSNTY-NH2 (disulfide 2-7; N-terminus assumed; SMILES CC[C@H](C)[C@H](NC(=O)[C@H](C)NC(=O)CNC(=O)[C@H](Cc1ccccc1)NC(=O)[C@H](CC(N)=O)NC(=O)[C@@H]1CCCN1C(=O)[C@H](CO)NC(=O)[C@H](CO)NC(=O)[C@H](Cc1c[nH]cn1)NC(=O)[C@H](CCCNC(=N)N)NC(=O)[C@H](CC(C)C)NC(=O)[C@H](Cc1ccccc1)NC(=O)[C@H](CO)NC(=O)[C@H](C)NC(=O)[C@H](CC(C)C)NC(=O)[C@H](CCCNC(=N)N)NC(=O)[C@H](CCC(N)=O)NC(=O)[C@@H](NC(=O)[C@H](C)NC(=O)[C@@H]1CSSC[C@H](NC(=O)[C@@H](N)CCCCNC(=O)COCCOCCNC(=O)CC[C@H](NC(=O)CCCCCCCCCCCCCCCCCCC(=O)O)C(=O)O)C(=O)N[C@@H](CC(N)=O)C(=O)N[C@@H]([C@@H](C)O)C(=O)N[C@@H](C)C(=O)N[C@@H]([C@@H](C)O)C(=O)N1)[C@@H](C)O)C(=O)N1CCC[C@H]1C(=O)N[C@@H](CO)C(=O)N[C@@H](CO)C(=O)N[C@H](C(=O)N1CCC[C@H]1C(=O)N[C@H](C(=O)NCC(=O)N[C@@H](CO)C(=O)N[C@@H](CC(N)=O)C(=O)N[C@H](C(=O)N[C@@H](Cc1ccc(O)cc1)C(N)=O)[C@@H](C)O)C(C)C)[C@@H](C)O, also called compound 73)
5 | 296 | 9070 | K([AEEA-γGlu-C20 diacid])CNTATCATQRLATFLRHSSPNFGAIPSSTPVGSNTY-NH2 (disulfide 2-7; N-terminus assumed; SMILES CC[C@H](C)[C@H](NC(=O)[C@H](C)NC(=O)CNC(=O)[C@H](Cc1ccccc1)NC(=O)[C@H](CC(N)=O)NC(=O)[C@@H]1CCCN1C(=O)[C@H](CO)NC(=O)[C@H](CO)NC(=O)[C@H](Cc1c[nH]cn1)NC(=O)[C@H](CCCNC(=N)N)NC(=O)[C@H](CC(C)C)NC(=O)[C@H](Cc1ccccc1)NC(=O)[C@@H](NC(=O)[C@H](C)NC(=O)[C@H](CC(C)C)NC(=O)[C@H](CCCNC(=N)N)NC(=O)[C@H](CCC(N)=O)NC(=O)[C@@H](NC(=O)[C@H](C)NC(=O)[C@@H]1CSSC[C@H](NC(=O)[C@@H](N)CCCCNC(=O)COCCOCCNC(=O)CC[C@H](NC(=O)CCCCCCCCCCCCCCCCCCC(=O)O)C(=O)O)C(=O)N[C@@H](CC(N)=O)C(=O)N[C@@H]([C@@H](C)O)C(=O)N[C@@H](C)C(=O)N[C@@H]([C@@H](C)O)C(=O)N1)[C@@H](C)O)[C@@H](C)O)C(=O)N1CCC[C@H]1C(=O)N[C@@H](CO)C(=O)N[C@@H](CO)C(=O)N[C@H](C(=O)N1CCC[C@H]1C(=O)N[C@H](C(=O)NCC(=O)N[C@@H](CO)C(=O)N[C@@H](CC(N)=O)C(=O)N[C@H](C(=O)N[C@@H](Cc1ccc(O)cc1)C(N)=O)[C@@H](C)O)C(C)C)[C@@H](C)O, also called compound 75)
